# Test results: PMC9402430, “Cryo-EM structure of an active bacterial TIR–STING filament complex” (Nature, 2022)
# Substitutions are numbered along the chain they refer to.
# T1: SfSTING (Sphingobacterium faecium TIR–STING) (Sphingobacterium faecium, UniProt A0A2T5Y4G4)
# T1 construct: gene cap12; full-length TIR-STING; N-terminal 6xHis fusion, modified pET16, E. coli BL21-CodonPlus(DE3)-RIL; homodimer forming filaments
# T1 sequence (A0A2T5Y4G4 1-323): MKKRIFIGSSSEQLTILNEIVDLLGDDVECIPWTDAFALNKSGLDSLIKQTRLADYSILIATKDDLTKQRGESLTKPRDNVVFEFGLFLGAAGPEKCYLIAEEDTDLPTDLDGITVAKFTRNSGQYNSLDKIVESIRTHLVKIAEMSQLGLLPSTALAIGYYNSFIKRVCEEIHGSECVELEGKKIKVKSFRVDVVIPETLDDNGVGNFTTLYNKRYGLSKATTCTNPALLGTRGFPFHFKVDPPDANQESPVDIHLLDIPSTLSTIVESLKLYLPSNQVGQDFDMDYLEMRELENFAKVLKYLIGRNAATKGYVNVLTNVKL
# B1: Sphingobacterium faecium TIR–STING (SfSTING), wild type (enzyme, UniProt A0A2T5Y4G4 1-323, looked up)
# chain: T1 sequence (A0A2T5Y4G4 1-323)
# notes: TIR–STING antiphage effector of the S. faecium CBASS operon; also called WT; source: E. coli BL21-CodonPlus(DE3)-RIL, purified (Ni-NTA, Superdex 200 SEC)
# B2: SfSTING D110A (enzyme, Sphingobacterium faecium, UniProt A0A2T5Y4G4 1-323, looked up)
# chain: T1 sequence (A0A2T5Y4G4 1-323) with D110A
# notes: S. faecium TIR–STING (SfSTING) with a substitution of the TIR DD-loop residue that completes the active site of the dimer mate; Mutant of m1; same vector and purification; also called intradimeric contact mutant; source: E. coli BL21-CodonPlus(DE3)-RIL, purified (Ni-NTA, Superdex 200 SEC)
# B3: SfSTING ΔA36–K41 (TIR BB loop replaced by a glycine-serine linker, D35-GSGG-S42) (enzyme, Sphingobacterium faecium, UniProt A0A2T5Y4G4 1-323, looked up)
# chain: MKKRIFIGSSSEQLTILNEIVDLLGDDVECIPWTDGSGGSGLDSLIKQTRLADYSILIATKDDLTKQRGESLTKPRDNVVFEFGLFLGAAGPEKCYLIAEEDTDLPTDLDGITVAKFTRNSGQYNSLDKIVESIRTHLVKIAEMSQLGLLPSTALAIGYYNSFIKRVCEEIHGSECVELEGKKIKVKSFRVDVVIPETLDDNGVGNFTTLYNKRYGLSKATTCTNPALLGTRGFPFHFKVDPPDANQESPVDIHLLDIPSTLSTIVESLKLYLPSNQVGQDFDMDYLEMRELENFAKVLKYLIGRNAATKGYVNVLTNVKL
# notes: S. faecium TIR–STING (SfSTING) in which residues A36–K41 of the TIR BB loop are replaced by GSGG (D35-GSGG-S42); Mutant of m1; also called TIR-to-TIR cross-filament contact mutant; SfSTING TIR mutant; source: E. coli BL21-CodonPlus(DE3)-RIL, purified (Ni-NTA, Superdex 200 SEC)
# Experiments:
# [1] = molecular target: T1, SfSTING (Sphingobacterium faecium TIR–STING); assay: cryo-EM structure; EMSA; conditions: 3x molar c-di-GMP (84 uM); STING CDN-binding pocket at dimer interface; activating ligand
# [2] = molecular target: T1, SfSTING (Sphingobacterium faecium TIR–STING); assay: fluorescence NADase assay; type: biochemical; conditions: 500 uM substrate; 20 uM c-di-GMP activator; 20 mM HEPES-KOH pH 7.5, 100 mM KCl
# [3] = molecular target: the molecule itself; assay: cryo-EM structure; SfSTING 1 mg/ml rapidly mixed with 3× molar c-di-GMP (84 μM), frozen within 10 s, 4 °C; second dataset pre-incubated with 1 mM benzamide adenine dinucleotide; dimers to filament (single and antiparallel double filaments)
# [4] = molecular target: the molecule itself; assay: cryo-EM structure; SfSTING 1 mg/ml rapidly mixed with 3× molar 3′,3′-cGAMP (84 μM), a weakly activating ligand; dimers to short oligomers
# [5] = molecular target: the molecule itself; assay: negative-stain EM; 1 μM wild-type or mutant SfSTING with 10 μM c-di-GMP, 20 mM HEPES-KOH pH 7.5, 250 mM KCl, 1 mM TCEP, 15 min on ice; dimers to filament
molecule,measurement,setting,value
Nc1nc2c(ncn2[C@@H]2O[C@@H]3COP(=O)(O)O[C@H]4[C@@H](O)[C@H](n5cnc6c(=O)[nH]c(N)nc65)O[C@@H]4COP(=O)(O)O[C@H]3[C@H]2O)c(=O)[nH]1 [c-di-GMP],cryo-EM structure; EMSA,[1],cryo-EM density map of the active SfSTING–c-di-GMP filament complex
"NC(=O)c1ccc[n+]([C@@H]2O[C@H](COP(=O)(O)OP(=O)(O)OC[C@H]3O[C@@H](n4cnc5c4ncn4ccnc54)[C@H](O)[C@@H]3O)[C@@H](O)[C@H]2O)c1 [nicotinamide 1,N^6-ethenoadenine dinucleotide]",fluorescence NADase assay,[2],WT* and E95Q* mutant SfSTING consume the ε-NAD substrate within the deadtime
B1,stoichiometry N,[3],~85 dimer copies
same,stoichiometry N,[4],4 to 6 units (dimers)
B2,binding result,[5],binds
B3,binding result,[5],binds
